# Laboratory results as given in patent publication US7381803 (PROTEIN DESIGN LABS, dated 2008).
# B1: mouse 1D10 antibody (parent, IgG1/kappa) (antibody, V domains shown)
# VH: QVQLKQSGPGLVQPSQSLSITCTGSGFSLTNYGVHWVRQSPGKGLEWLGVKWSGGSTEYNAAFISRLSISKDNSKSQVFFKMNSLQADDTAMYYCARNDRYAMDYWGQGTSVTVSS
# VL: DIQMTQSPASLSASVGETVTITCRASENIYSYLAWYQQKQGKSPQLLVSNAKTLAEGVTSRFSGSGSGKQFSLKINSLQPEDFGNYYCQHHYGNSYPFGGGTKLEIK
# B2: humanized 1D10-IgG1 (antibody, V domains shown)
# VH: QVQLQESGPGLVKPSETLSLTCTVSGFSLTNYGVHWVRQSPGKGLEWIGVKWSGGSTEYNAAFISRLTISKDTSKNQVSLKLNSLTAADTAVYYCARNDRYAMDYWGQGTLVTVSS
# VL: DIQMTQSPSSLSASVGDRVTITCRASENIYSYLAWYQQKPGKAPKLLVSNAKTLAEGVPSRFSGSGSGKQFTLTISSLQPEDFATYYCQHHYGNSYPFGQGTKLEIKR
# B3: HuM291-Fos F(ab'-zipper)2 (antibody, V domains shown)
# VH: QVQLVQSGAEVKKPGASVKVSCKASGYTFISYTMHWVRQAPGQGLEWMGYINPRSGYTHYNQKLKDKATLTADKSASTAYMELSSLRSEDTAVYYCARSAYYDYDGFAYWGQGTLVTVSS
# VL: DIQMTQSPSSLSASVGDRVTITCSASSSVSYMNWYQQKPGKAPKRLIYDTSKLASGVPSRFSGSGSGTDFTLTISSLQPEDFATYYCQQWSSNPPTFGGGTKVEIKR
# notes: Bivalent F(ab'-zipper)2 fragment without Fc; The heavy chain is the Fd-Fos (VH 1-120, CH1 121-218, modified hinge 219-238, Fos leucine zipper 239-279); 125I-labelled in the Scatchard analysis; also called humanized F(ab'-zipper)2 of M291
# Tests used:
# [1] = target: 28/32 kDa heterodimeric protein on the surface of malignant B-cells; assay: whole cell indirect radioimmunoassay on HO-85 and Raji cells
# [2] = target: 28/32 kDa heterodimeric protein on the surface of malignant B-cells; assay: Scatchard analysis, 125I-labelled antibody on Raji cells
# [3] = target: T1, human CD3 antigen on the surface of T cells (human, UniProt P07766 23-207); assay: Scatchard analysis, 125I-labelled antibody on activated human T cells
# T1 construct: whole, on cells; also called human CD3 complex
# T1 sequence (P07766 23-207): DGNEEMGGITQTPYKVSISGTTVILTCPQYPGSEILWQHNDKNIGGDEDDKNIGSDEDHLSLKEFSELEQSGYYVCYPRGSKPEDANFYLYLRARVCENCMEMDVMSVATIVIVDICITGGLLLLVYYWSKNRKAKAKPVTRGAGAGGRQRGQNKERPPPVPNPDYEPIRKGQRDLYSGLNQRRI
# Experimental: Figure 11A: FIG. 11. (A). Displacement assay to compare the relative affinity of HuM291-Fos and M291 for their antigen. Sub-saturation amounts of murine M291-FITC on human T cells were displaced by increasing amounts of murine M291 or HuM291-Fos. T cells were resuspended in complete media at 2.5 ×10^6/ml. Dilutions of the test (HuM291-Fos) or control (murine M291) antibody were added and incubated at 4° C. for 1 hour. A fixed, subsaturation amount of murine M291-FITC was added, and the cells were incubated at 4° C. for 1 hour, wash d, and resuspended in 1% paraformaldehyde. The cells were then analyzed using flow cytometry. Values expressed in % inhibition of fluorescence intensity compared to no competitive antibody control. (B). Scatchard plot analysis of the binding of ^125I-label d HuM291-Fos to activated human T cells. […] The cells were washed in binding buffer (2% horse serum in PBS containing 0.1% sodium azide) and counted. Nonspecific binding was determined by inhibiting the specific binding with an excess of nonlabeled HuM291-Fos. The apparent K_a and the number of binding sites were calculated from the slope and th X axis intercept, respectively, of the Scatchard plot. […]
# The relative affinity of murine M291 and HuM291-Fos F(ab'-zipper)_2 for T cells was evaluated using the displacement assay described above. […]
binder,measurement,setting,value
B1,binding activity relative to tissue culture medium alone,[1],5 times
B2,Ka,[2],2.3e+08 M⁻¹
same,sites per cell (sites per cell),[2],500000
B3,Ka,[3],~1.1e+09 M⁻¹
